From patent US9045527 (WILLIAM MARSH RICE UNIVERSITY, dated 2015) come the findings set out here.

Experiment [1] concerns the target T1, CAL PDZ domain (CALP), wild type (UniProt Q9HD26 278-362). Kind of experiment: fluorescence anisotropy displacement of a fluorescent reporter peptide. In general terms: Fluorescence polarisation rises when a labelled molecule tumbles more slowly, as on binding a larger partner.
Experimental: (§1) Protein binding studies: Fluorescence anisotropy inhibition binding assays were performed using standard procedures. […] Following equilibration, fluorescence anisotropy values were determined using a Tecan Infinite M1000 plate reader (n=3). Inhibitor equilibrium dissociation (Ki) constants were estimated as described. DMSO and rhodium(II) acetate were used as negative controls for unlabeled and labeled peptides, respectively.
The target in the next experiment is CALP-H301A mutant (UniProt Q9HD26 278-362). Described as above.
The target in the next experiment is T2, K3a,eRh2 metallopeptide (chain 1 pos 9 (heptad a) and pos 13 (heptad e): Glu side-chain carboxylates bridged by one dirhodium(II) centre, written E. N-terminal acetyl per paragraph 78. C-terminal form not stated.).
T2 peptide: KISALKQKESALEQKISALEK
Put plainly: thermal denaturation of an equimolar mixture, CD.

In experiment [2] the target is T1, CAL PDZ domain (CALP), wild type. Kind of experiment: fluorescence anisotropy displacement of a fluorescent reporter peptide; apparent Ki, not significantly different from Rh2(OAc)4.
Experimental: as §1

Where no end group is shown, it is not given here.

Experimental for CALP-H301A mutant: as §1
Experimental for K3a,eRh2 metallopeptide: Temperature denaturation curves were fit to a two-state unfolding model and plotted (black line, S-5) as fraction unfolded vs. temperature as described previously by Lavigne et al.8 Error associated with the non-linear least squared-determined Tm was determined using the freely available "Solver Statistics" macro for Microsoft Excel.

B1: E^RhWPTSII metallopeptide (peptide)
peptide: Ac-E(dirhodium)WPTSII-OH
modifications: also: dirhodium metal complex at Glu side chain
Regarding B1, the Ki in experiment [1] is 1.7 µM.

B2: E^RhVQSTRL metallopeptide (peptide)
peptide: Ac-E(dirhodium)VQSTRL-OH
modifications: also: dirhodium metal complex at Glu side-chain carboxylate
On to B2, for which the Ki turned out to be 0.56 µM in experiment [1] and 9.2 µM with CALP-H301A mutant.

B3: E3gC peptide (peptide)
peptide: Ac-EISALEKCISALEQEISALEK
On to B3, for which, in the experiment with K3a,eRh2 metallopeptide, the binding result was “binds”.

B4: VQD^RhTRL metallopeptide (peptide)
peptide: Ac-VQD(dirhodium)TRL-OH
modifications: also: dirhodium metal complex at Asp side-chain carboxylate
As for B4, in experiment [2], the Ki was 6.3 µM.
